Laboratory results published in US20230365674 (published 2023).

What was measured:
Assay in all cases: ELISA
[1] = biological target: T1, rat NPR1 (rat)
T1 chain: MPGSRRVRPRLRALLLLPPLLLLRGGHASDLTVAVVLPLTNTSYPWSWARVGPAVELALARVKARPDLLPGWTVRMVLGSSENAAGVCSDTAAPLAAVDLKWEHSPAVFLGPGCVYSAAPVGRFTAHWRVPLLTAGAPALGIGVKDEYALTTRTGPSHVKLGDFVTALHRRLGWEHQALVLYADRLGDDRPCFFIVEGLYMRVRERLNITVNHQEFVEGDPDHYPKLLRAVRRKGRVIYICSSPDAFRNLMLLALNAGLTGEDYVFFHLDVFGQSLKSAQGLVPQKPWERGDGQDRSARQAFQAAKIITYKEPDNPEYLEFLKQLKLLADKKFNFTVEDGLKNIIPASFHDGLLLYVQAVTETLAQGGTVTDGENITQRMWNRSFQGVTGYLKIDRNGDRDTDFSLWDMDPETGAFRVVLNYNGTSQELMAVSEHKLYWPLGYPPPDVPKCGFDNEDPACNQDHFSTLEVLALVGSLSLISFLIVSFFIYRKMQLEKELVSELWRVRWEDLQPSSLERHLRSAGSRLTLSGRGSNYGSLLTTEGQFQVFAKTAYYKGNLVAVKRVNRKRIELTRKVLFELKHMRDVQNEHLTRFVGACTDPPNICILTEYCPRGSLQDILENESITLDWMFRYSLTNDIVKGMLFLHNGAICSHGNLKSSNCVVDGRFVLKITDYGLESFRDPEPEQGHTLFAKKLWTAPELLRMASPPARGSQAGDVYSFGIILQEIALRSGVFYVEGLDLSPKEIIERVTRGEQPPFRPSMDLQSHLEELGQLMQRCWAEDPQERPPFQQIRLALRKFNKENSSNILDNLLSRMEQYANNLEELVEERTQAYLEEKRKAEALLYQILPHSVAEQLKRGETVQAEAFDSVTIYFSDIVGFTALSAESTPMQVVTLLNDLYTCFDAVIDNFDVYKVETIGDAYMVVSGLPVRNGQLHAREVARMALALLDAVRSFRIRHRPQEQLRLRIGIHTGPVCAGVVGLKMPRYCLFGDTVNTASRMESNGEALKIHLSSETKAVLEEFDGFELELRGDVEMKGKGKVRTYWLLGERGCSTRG

[2] = biological target: T2, human NPR1 W74R + ANP (human)
T2 chain 1: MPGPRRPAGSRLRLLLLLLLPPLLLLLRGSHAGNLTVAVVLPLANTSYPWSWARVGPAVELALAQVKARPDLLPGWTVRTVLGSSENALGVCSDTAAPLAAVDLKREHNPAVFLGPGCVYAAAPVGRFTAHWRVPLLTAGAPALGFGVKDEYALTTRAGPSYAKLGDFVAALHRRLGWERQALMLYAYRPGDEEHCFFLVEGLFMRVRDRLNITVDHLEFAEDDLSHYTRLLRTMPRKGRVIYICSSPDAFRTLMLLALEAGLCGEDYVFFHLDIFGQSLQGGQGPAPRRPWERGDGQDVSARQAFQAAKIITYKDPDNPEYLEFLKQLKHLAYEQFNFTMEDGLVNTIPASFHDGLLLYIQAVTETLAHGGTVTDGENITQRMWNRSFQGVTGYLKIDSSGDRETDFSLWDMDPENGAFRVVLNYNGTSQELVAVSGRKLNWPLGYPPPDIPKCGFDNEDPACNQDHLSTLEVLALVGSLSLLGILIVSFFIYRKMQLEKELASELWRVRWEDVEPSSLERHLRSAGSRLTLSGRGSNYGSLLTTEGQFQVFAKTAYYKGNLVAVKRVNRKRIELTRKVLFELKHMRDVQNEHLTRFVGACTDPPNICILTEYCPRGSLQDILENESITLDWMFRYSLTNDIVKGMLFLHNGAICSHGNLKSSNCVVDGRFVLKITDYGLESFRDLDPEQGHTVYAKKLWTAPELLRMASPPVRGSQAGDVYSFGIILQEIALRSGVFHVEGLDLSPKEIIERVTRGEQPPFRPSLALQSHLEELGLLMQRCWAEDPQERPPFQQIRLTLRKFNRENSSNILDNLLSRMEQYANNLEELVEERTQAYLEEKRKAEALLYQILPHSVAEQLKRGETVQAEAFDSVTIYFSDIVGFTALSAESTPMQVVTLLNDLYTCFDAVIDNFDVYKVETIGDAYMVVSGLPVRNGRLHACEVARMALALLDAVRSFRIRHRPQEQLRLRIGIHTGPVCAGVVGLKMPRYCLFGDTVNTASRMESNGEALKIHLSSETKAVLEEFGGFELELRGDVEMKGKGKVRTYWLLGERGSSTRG
T2 chain 2: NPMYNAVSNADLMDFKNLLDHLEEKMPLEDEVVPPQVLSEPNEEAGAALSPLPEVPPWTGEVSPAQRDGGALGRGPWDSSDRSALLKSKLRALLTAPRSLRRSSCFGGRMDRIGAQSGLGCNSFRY

[3] = biological target: T3, rat NPR1-ANP complex (rat)
T3 chain 1: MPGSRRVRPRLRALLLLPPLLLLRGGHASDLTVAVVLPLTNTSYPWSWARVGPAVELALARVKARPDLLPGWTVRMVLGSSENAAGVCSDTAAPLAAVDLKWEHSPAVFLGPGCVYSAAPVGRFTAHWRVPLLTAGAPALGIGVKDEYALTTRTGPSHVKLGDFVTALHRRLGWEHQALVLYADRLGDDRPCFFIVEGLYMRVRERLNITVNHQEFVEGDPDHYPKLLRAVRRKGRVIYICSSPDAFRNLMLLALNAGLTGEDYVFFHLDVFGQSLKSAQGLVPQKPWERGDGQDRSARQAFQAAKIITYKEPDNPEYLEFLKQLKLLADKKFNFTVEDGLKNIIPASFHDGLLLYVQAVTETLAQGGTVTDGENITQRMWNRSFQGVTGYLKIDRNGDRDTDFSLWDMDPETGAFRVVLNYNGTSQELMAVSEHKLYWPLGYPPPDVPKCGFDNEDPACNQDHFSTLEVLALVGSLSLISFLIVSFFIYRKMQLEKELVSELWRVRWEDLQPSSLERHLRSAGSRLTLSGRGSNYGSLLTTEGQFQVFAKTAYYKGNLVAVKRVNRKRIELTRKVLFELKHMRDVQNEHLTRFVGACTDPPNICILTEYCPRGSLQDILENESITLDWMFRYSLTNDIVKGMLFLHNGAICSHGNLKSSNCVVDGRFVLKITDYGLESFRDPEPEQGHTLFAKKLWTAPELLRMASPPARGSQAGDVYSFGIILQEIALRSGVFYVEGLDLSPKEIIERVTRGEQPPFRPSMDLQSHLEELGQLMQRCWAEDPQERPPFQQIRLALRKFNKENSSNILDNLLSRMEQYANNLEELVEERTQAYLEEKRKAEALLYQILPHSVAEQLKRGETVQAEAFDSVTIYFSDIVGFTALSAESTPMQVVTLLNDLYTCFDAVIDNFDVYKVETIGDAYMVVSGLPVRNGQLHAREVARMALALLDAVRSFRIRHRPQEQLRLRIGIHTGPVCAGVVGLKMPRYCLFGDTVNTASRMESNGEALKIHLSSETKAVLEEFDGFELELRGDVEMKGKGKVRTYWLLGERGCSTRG
T3 chain 2: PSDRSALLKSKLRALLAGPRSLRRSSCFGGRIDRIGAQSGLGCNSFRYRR

[4] = biological target: T4, human NPR1 (human)
T4 chain: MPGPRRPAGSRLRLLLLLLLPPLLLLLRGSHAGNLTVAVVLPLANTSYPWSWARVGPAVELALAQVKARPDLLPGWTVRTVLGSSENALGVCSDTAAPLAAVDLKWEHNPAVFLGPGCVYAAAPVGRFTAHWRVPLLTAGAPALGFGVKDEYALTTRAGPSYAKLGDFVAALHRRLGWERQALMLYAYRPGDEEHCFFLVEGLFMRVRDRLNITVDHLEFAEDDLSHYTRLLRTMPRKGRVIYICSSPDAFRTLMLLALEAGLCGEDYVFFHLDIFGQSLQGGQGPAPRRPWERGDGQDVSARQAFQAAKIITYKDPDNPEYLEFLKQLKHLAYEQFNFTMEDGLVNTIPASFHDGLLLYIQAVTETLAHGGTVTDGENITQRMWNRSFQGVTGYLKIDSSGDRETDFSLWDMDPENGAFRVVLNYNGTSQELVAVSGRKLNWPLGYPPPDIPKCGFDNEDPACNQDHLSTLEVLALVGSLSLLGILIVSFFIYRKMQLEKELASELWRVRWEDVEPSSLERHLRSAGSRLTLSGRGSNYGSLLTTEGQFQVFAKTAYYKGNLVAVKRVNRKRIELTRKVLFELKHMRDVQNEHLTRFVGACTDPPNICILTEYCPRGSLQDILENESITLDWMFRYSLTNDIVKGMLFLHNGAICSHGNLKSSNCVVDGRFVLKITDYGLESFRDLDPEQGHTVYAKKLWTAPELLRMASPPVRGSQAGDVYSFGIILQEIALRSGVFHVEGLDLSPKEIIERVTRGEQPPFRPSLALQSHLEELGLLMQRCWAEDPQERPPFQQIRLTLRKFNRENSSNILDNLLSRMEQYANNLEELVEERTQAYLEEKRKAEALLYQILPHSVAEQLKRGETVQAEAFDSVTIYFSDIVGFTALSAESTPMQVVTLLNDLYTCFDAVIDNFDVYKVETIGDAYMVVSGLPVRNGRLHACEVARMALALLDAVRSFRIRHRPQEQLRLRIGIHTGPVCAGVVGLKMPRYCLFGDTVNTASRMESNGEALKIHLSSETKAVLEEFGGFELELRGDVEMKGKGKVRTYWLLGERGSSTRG

[5] = biological target: T5, human NPR3 (human, UniProt P17342)
T5 chain: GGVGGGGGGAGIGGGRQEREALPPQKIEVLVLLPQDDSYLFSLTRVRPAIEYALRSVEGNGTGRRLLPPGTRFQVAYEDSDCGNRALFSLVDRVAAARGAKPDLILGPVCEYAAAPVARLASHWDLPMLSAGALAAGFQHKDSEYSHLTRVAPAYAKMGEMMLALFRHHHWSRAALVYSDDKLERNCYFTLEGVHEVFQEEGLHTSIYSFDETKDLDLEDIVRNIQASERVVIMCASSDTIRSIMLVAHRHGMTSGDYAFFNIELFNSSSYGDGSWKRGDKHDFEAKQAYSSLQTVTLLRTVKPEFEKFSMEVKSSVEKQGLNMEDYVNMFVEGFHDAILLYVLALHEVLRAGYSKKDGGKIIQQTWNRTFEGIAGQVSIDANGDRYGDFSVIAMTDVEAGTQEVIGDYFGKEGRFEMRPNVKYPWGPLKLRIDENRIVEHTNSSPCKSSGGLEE

[6] = biological target: T6, human NPR1 W74R (human)
T6 chain: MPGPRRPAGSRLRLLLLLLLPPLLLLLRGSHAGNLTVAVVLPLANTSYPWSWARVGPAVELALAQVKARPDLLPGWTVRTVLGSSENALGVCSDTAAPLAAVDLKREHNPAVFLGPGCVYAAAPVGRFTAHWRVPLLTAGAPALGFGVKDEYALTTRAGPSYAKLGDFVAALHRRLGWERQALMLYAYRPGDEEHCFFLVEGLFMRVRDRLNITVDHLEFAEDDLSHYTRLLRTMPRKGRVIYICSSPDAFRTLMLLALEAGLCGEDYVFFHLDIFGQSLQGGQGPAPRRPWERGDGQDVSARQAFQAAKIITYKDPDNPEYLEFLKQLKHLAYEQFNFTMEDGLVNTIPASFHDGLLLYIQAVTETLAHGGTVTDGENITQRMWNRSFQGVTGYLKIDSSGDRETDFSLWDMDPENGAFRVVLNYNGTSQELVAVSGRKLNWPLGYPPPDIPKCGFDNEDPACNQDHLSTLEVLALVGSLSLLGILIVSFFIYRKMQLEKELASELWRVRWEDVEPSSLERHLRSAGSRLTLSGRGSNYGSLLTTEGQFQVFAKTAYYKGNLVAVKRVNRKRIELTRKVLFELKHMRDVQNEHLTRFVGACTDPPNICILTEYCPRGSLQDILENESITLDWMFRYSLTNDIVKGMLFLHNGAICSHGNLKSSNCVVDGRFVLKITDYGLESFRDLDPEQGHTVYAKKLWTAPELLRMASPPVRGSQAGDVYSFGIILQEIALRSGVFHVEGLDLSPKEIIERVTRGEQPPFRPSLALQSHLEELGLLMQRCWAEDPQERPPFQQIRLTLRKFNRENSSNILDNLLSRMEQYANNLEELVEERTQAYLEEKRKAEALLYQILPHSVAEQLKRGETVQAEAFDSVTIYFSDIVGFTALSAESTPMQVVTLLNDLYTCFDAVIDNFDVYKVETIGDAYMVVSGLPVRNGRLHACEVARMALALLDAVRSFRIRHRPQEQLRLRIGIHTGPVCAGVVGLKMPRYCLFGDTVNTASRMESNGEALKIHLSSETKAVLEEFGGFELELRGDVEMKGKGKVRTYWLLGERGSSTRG

[7] = biological target: T7, human NPR3 + ANP (human, UniProt P17342)
T7 chain 1: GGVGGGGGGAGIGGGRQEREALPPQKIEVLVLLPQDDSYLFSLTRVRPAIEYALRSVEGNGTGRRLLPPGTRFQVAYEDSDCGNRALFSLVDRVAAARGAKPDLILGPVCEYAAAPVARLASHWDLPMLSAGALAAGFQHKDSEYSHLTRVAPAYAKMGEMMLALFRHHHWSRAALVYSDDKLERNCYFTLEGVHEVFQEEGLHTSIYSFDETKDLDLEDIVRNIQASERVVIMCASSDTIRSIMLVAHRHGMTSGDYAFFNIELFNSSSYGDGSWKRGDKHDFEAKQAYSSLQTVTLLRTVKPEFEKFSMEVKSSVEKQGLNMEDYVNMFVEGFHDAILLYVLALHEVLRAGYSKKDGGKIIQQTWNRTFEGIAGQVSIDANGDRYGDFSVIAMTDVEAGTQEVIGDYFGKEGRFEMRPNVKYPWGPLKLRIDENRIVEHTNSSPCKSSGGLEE
T7 chain 2: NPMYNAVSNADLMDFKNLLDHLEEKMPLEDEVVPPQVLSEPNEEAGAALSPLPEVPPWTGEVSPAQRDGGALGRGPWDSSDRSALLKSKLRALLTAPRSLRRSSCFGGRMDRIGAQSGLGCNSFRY

Measured: binding result

B1: WW01 IgG (antibody, V domains shown)
VH: QVQLLESGGGLVQPGGSLRLSCAASGFTFNTHYIHWVRQAPGKGLEWVSSISGSGSNTYYADSVKGRFTISRDNSKNTLYLQMNSLRAEDTAVYYCARERGYVYYHMFDPWGQGTLVTVSS
VL: DIVLTQSPATLSLSPGERATLSCRASQSITRNYLAWYQQKPGQAPRLLIYGASSRATGIPARFSGSGSGTDFTLTISSLEPEDFAVYYCQQHSMYPRTFGQGTKVEIK
no binding: all assays above
